Drawing on patent publication US6020130, “Nucleic acid ligands that bind to and inhibit DNA polymerases” (NeXstar Pharmaceuticals, Inc.), this text covers IC50 and Kd for six molecules.

Data set [1] addresses T1, Taq DNA polymerase (UniProt P19821 P19821:1-832). The data set can be described thus: inhibition; hairpin extension assay; IT50 34 C. The conditions noted are these: tags: rTaq, 94 kDa, Roche Molecular Systems / Perkin Elmer. On the procedure: (§1) Deletion analysis of the full-length TQ21 sequence led to the identification of a 51-mer sequence (Trnc.21 (SEQ ID NO:70) (Table 4)) that retained the ability to inhibit both Taq and Tth polymerases. In addition to the entire 30-nucleotide random region, the Trnc.21 sequence contained 9 and 12 nucleotides from the 5' and 3' fixed regions, respectively (Table 4). […] The calculated $IT50$ values for Taq polymerase and Tth polymerase are 34° C. and 35.6° C., respectively (FIG. 13C). The hairpin extension assays were carried out between the temperatures of 35 and 50° C. for 1 hour with […] Trnc.21. Thus, based on the affinity and the values of $IC50$ and $IT50$, the truncated form of TQ21 is a better inhibitor than the full-length sequence.
(§2) In a typical inhibition assay, a 20 μL reaction contained either 0.25 pmoles of Taq polymerase (5 U) or 0.125 pmoles of Tth polymerase (2.5 U), oligonucleotide inhibitor (at varying concentrations), 10 mM Tris-HCl (pH 8.3), 50 mM KCl, 2.5 mM MgCl_2, and 1 mM each dNTPs. Gel purified, 5'-end-labeled hairpin DNA substrate (DNA-HP; 5'-[…]-3') was then added to a final concentration of 250 nM and the reaction was incubated at 30° C. for 1 hour. The reaction was stopped by adding 5 μL of 0.5 M EDTA (pH 8.0) followed by formamide gel loading buffer. Extension products were resolved on 10% polyacrylamide gels under denaturing conditions.

Data set [2] addresses T2, Tth DNA polymerase (UniProt P52028 P52028:1-834). The data set can be described thus: inhibition; hairpin extension assay; IT50 35.6 C. The conditions noted are these: tags: rTth, 94 kDa, Roche Molecular Systems / Perkin Elmer. On the procedure:
as §1, §2

The target of data set [3] is T1, Taq DNA polymerase. The data set can be described thus: inhibition; hairpin extension assay, monomer. Conditions: tags: rTaq, 94 kDa, Roche Molecular Systems / Perkin Elmer; stem-loop. The protocol: as §2, with “conditions. The amount of extension products were quantitated by phosphorimager. The amounts of products formed in the presence of inhibitor was normalized to the product formed in the absence of an inhibitor to obtain the percent of product.” for “conditions.”

Data set [4] deals with T2, Tth DNA polymerase. The data set can be described thus: inhibition; room temperature; IT50 29 C. Conditions: tags: rTth, 94 kDa, Roche Molecular Systems / Perkin Elmer. The protocol:
(§3) Since the concentration of Taq polymerase used in the assay is 12.5 nM, enzyme inhibition by TQ30 (SEQ ID NO:50) is likely to be a result of stoichiometric binding.
as §2, with “conditions. The amount of extension products were quantitated by phosphorimager. The amounts of products formed in the presence of inhibitor was normalized to the product formed in the absence of an inhibitor to obtain the percent of product.” for “conditions.”

Data set [5] concerns the target T1, Taq DNA polymerase. The data set can be described thus: inhibition; room temperature 16 h, 12.5 nM Taq; 67 nM at 30 C 1 h; IT50 37 C. The conditions noted are these: tags: rTaq, 94 kDa, Roche Molecular Systems / Perkin Elmer. The protocol:
as §3
as §2, with “conditions. The amount of extension products were quantitated by phosphorimager. The amounts of products formed in the presence of inhibitor was normalized to the product formed in the absence of an inhibitor to obtain the percent of product.” for “conditions.”

Data set [6] concerns the target T1, Taq DNA polymerase. Nature of the data set: filter. Conditions: tags: rTaq, 94 kDa, Roche Molecular Systems / Perkin Elmer; stem-loop dimer. On the procedure: For isolation of DNA molecules that bind tightly to Taq polymerase and Tth polymerase, respectively, the nitrocellulose filter partitioning method was used as described in the SELEX Patent Applications. Briefly, gel-purified ^32P ss-DNA pools labeled at the 5' end were suspended in the binding buffer, heated to 80° C., chilled on ice and then brought to room temperature. The DNA (5–10 pM) was then incubated for 15 minutes at room temperature with varying amounts of the target polymerase in 50 µL of the appropriate binding buffer containing 0.1 µg of tRNA and 0.01% hSA. The DNA concentrations were kept lower than 100 pM to ensure equilibrium in the presence of excess protein concentrations. After 15 minutes the binding reaction mixtures were passed through pre-wet nitrocellulose/cellulose acetate mixed matrix filters (0.45 µm pore size, Millipore Corporation, Bedford, Mass.) and the filters were immediately washed with 5 mL of binding buffer. The amount of DNA bound to the filters was quantitated by measuring the radioactivity of the filters by liquid scintillation counting. The quantity of DNA bound to filters in the absence of protein was used for background correction. The percentage of input DNA retained on each filter was plotted against the corresponding log of the polymerase concentration (FIGS. 1 and 2). […]

In data set [7] the target is T1, Taq DNA polymerase. The data set can be described thus: inhibition; hairpin extension assay. The conditions noted are these: tags: rTaq, 94 kDa, Roche Molecular Systems / Perkin Elmer; stem-loop dimer. On the procedure: as §2, with “conditions. The amount of extension products were quantitated by phosphorimager. The amounts of products formed in the presence of inhibitor was normalized to the product formed in the absence of an inhibitor to obtain the percent of product.” for “conditions.”

Data set [8] concerns the target T2, Tth DNA polymerase. Nature of the data set: inhibition; hairpin extension assay; IT50 34.5 C. Conditions: tags: rTth, 94 kDa, Roche Molecular Systems / Perkin Elmer. On the procedure:
as §2, with “conditions. The amount of extension products were quantitated by phosphorimager. The amounts of products formed in the presence of inhibitor was normalized to the product formed in the absence of an inhibitor to obtain the percent of product.” for “conditions.”

For data set [9], the target named is T1, Taq DNA polymerase. The data set can be described thus: inhibition; hairpin extension assay; IT50 41 C. The conditions noted are these: tags: rTaq, 94 kDa, Roche Molecular Systems / Perkin Elmer. The protocol:
as §2, with “conditions. The amount of extension products were quantitated by phosphorimager. The amounts of products formed in the presence of inhibitor was normalized to the product formed in the absence of an inhibitor to obtain the percent of product.” for “conditions.”

Data set [10] addresses T1, Taq DNA polymerase. Nature of the data set: inhibition; room temperature 16 h, 12.5 nM Taq; 22 nM at 30 C 1 h; IT50 41 C. Conditions: tags: rTaq, 94 kDa, Roche Molecular Systems / Perkin Elmer. The protocol:
as §3
as §2, with “conditions. The amount of extension products were quantitated by phosphorimager. The amounts of products formed in the presence of inhibitor was normalized to the product formed in the absence of an inhibitor to obtain the percent of product.” for “conditions.”

T1 sequence (P19821 whole entry, one chain of several): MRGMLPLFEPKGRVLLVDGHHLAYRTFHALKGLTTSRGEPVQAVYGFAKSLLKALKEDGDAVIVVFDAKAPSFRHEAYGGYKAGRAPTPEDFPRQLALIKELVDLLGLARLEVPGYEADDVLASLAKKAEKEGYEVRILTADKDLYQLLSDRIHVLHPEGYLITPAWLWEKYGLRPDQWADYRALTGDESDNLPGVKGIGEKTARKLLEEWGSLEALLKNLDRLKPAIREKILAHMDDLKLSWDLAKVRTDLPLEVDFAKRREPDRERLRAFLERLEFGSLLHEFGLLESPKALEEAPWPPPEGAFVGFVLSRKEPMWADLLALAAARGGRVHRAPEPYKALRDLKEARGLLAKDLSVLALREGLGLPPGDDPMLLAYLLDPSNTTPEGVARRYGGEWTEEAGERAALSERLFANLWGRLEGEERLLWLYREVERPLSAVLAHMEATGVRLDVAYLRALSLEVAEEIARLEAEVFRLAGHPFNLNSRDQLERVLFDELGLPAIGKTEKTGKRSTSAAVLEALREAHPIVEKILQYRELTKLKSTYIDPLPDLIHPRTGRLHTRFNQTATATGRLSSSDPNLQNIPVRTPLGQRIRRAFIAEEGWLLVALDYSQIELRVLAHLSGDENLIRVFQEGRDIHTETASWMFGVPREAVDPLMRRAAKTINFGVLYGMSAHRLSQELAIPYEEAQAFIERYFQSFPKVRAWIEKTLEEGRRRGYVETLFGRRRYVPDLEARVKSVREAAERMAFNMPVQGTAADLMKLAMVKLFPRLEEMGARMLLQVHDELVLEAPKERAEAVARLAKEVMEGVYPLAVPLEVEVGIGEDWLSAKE
T2 sequence (P52028 whole entry, one chain of several): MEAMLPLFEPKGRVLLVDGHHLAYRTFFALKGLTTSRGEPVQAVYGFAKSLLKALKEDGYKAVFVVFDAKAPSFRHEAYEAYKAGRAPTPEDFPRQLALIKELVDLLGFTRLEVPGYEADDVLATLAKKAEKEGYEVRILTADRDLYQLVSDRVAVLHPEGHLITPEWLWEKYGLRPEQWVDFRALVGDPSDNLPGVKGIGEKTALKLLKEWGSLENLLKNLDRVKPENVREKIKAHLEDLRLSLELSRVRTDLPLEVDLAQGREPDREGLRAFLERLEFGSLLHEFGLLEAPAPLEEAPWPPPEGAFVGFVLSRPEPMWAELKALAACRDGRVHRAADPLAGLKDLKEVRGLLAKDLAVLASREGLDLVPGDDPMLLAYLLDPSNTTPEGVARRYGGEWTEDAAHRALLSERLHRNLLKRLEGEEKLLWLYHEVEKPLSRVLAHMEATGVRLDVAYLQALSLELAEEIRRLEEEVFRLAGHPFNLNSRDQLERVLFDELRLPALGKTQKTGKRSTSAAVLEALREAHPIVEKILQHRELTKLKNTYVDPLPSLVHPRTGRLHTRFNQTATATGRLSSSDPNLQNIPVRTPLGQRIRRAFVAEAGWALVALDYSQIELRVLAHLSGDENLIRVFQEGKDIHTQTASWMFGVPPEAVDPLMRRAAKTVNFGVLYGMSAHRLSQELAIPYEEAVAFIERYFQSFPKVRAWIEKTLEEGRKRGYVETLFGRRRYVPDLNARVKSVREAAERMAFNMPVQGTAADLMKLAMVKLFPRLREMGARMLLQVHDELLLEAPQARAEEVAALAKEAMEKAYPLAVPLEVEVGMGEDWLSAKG

B1: Trnc.21 (ssDNA)
DNA: TGGCGGAGCGATCATCTCAGAGCATTCTTAGCGTTTTGTTCTTGTGTATGA
What is called IC50 is the midpoint of a concentration-inhibition curve. The low end stands for higher potency, the high end for lower potency. For the molecule B1, the values for the IC50 in [1] and in [2] were 21 nM and 36.5 nM, respectively.

B2: Trnc.2-30 (ssDNA)
DNA: GCCGGCCAATGTACAGTATTGGCCGGC
B2: half-maximal inhibition in data set [3] (IC50) required 48 nM.

B3: TQ21 (ssDNA)
DNA: TTCTCGGTTGGTCTCTGGCGGAGCGATCATCTCAGAGCATTCTTAGCGTTTTGTTCTTGTGTATGATTCGCTTTTCCC
In the case of B3, the IC50 in data set [4] is 36 nM; in data set [5], 10 nM.

B4: D.30-D.30 homodimer (ssDNA)
DNA 1: GCCGGCCAATGTACAGTATTGGCCGGC
DNA 2: GCCGGCCAATGTACAGTATTGGCCGGC
modifications: two Trnc.2-30 copies joined with symmetrical 3'-3' branching CPG linker (linker region drawn in figure only)
The term Kd denotes the concentration at which binding is half-saturated. Higher therefore signals a looser complex. In data set [6], B4 displayed a Kd of 0.0475 nM. The molecule also displayed an IC50 in [7] of 14 nM.

B5: D.21-D.30 heterodimer (ssDNA)
DNA: TGGCGGAGCGATCATCTCAGAGCATTCTTAGCGTTTTGTTCTTGTGTATGATTTGCCGGCCAATGTACAGTATTGGCCGGC
Consider B5, for which the IC50 in [8] and in [9] was about 30 nM each time.

B6: TQ30 (ssDNA)
DNA: TTCTCGGTTGGTCTCTGGCGGAGCAAGACCAGACAATGTACAGTATTGGCCTGATCTTGTGTATGATTCGCTTTTCCC
Turning to B6, the IC50 worked out at 60 nM in data set [4] and 6.5 nM in data set [10].
